Reference: patent US20080131373A1 (VAN ANDEL RESEARCH INSTITUTE, published 2008)

Columns and labels:
[1] = biological target: human epidermal growth factor receptor (EGFR) on the surface of A431 cells (human, UniProt P00533 25-1210); experiment: cell-based or functional assay
[2] = biological target: T1, full length EGFR protein from A431 cell lysate (affinity purified, or native in the lysate) (human, UniProt P00533 25-1210); experiment: non-competitive ELISA on immobilized EGFR at 2 and 5 µg/ml coating
T1 construct: mature; 'mature' is chosen as the nearest form; also called intact EGFR protein; native EGFR
Description: The hyperbolic curves were plotted by Graphpad Prism (FIG. 7). […] The affinity was calculated as an association constant (Kaff) as follows: […]
The affinity of the Fab was calculated by non-competitive ELISA as described elsewhere (Raghava G P, et al. J Immunoassay 15:115-28 (1994)). The EGFR proteins were immobilized to an ELISA plate at two different concentrations: 2 μg/ml and 5 μg/ml. After the plate was blocked by 5% milk-PBS, the serially diluted Fab was added to each well. The concentration of Fab and the absorbance optical at 450 nm were plotted in two hyperbolic curves and each Kd was calculated by Graphpad Prism Demo Version.

B1: Fab-paclitaxel conjugate (anti-EGFR Fab conjugated to paclitaxel) (Fab, V domains shown)
VH: EVQLVESGGGLVQPGRSLRLSCAASGFTFDDYAMHWVRQAPGKGLEWVAVIWYDGSNKYYADSVKGRFTISRDNSKNTLYLQMNSLRAEDTAVYYCARTLYSNIDYWGQGTLVTVSS
VL: ALTQPPSVSVAPGKTARITCGGNNIGSKSVHWYQQKPGQAPVLVIYYDSDRPSGIPERFSGSNSGNTATLTISRVEAGDEADYYCQVWDSSSDHPVFGGGTKLTVL
modifications: paclitaxel conjugated to the Fab; chain, site and linker not stated
- IC50 of A431 cell proliferation [1]: 0.02 nM

B2: anti-EGFR Fab fragment (produced by E. coli deposited as ATCC PTA-7830) (Fab, V domains shown)
VH: B1 VH
VL: B1 VL
notes: Human Fab from a naive phage display library (phagemid pComb3X), expressed in E. coli Top 10 F' and purified from the periplasm; also called the Fab of the present invention
- Ka [2]: 3.25e+07 M⁻¹
- Kd [2]: 30.7 nM
